Reference: the DeepSol protein solubility set

Test: soluble on expression in E. coli; label from the status in PepcDB or PDB records

| Sequence | soluble on expression in E. coli |
| --- | --- |
| MFKFLMIISMSKHIKRAAKNREDLLEAAVEMFKTHGMMVPLQVIIDHANVGRATFYRNFADRKMLVYALLEQSLVKLKQRTQLYQTYPDGLIRLIQSHVNHLNHLSALMEYWRVLDYSDTSLQALIQQHQRIIQPLIDQAILHKVCRPDFNFEDYRSIVTMLSSSFRGHTEQEQIRMASRVIDLLLNGICLNQEESHG | not soluble |
| QPTAPKDFSSGFWDFNDGTTQGFGVNPDSPITAINVENANNALKISNLNSKGSNDLSEGNFWANVRISADIWGQSINIYGDTKLTMDVIAPTPVNVSIAAIPQSSTHGWGNPTRAIRVWTNNFVAQTDGTYKATLTISTNDSPNFNTIATDAADSVVTNMILFVGSNSDNISLDNIKFTK | soluble |
| MDPDLWEETGHNSELLLRLLPAARLTAVARDPQYTGRLEQVWQQYRTYLGAPVNRGNLPGLESNQVIAYFSAEFGLSEALPIYAGGLGFLAGDHLKSASDLGLPLVGVGLLYREGYFRQRLDRRGQQREVYSRYDFYQLPLELERRADGSPLEVQVNFPDPDRQVRARVWRARVGRLNLYLLDSDCPGNLEADRLITDRLYGGDLEKRIQQEILLGIGGVRALAALGINATIFHLNEGHSAFLGLERIRQLQARYGLDLASARELATCSNIFTTHTPVPAGIDVFPPYLMDKYFTEYYQSLGLSRHEFLALGRQDPNNQQEPFNMAVLALRLSAWANGVSQLHGQTARRMWQVIWPGVPVAEIPIGAITNGVHTTSWVGEKMAALYDRYLGTAWRELEHHHHHH | not soluble |
| MGSDKIHHHHHHMLRGINRQIIFEDDEDYQNFMGTIKETQEKSGYEVYAYCLMSNHVHLLLKEVTEDLGIAFRRIGAIYVYWYNWKYSRRGHLFQARYKSEAVETDSYFLTVLRYIHQNPYKAGIVKNIADYPWSSYGEYVGEPRICDVEFGLNMFSTNRTNAVKLFEEFNLAENQDQCLDYNQDVRLNDTEASNFIRSISDVQSPTEIQGFEKDKRNEVIKKCKSKGLSIRQIERLTGVSFGVIRTI | not soluble |
| ASNSQLNAMAHQIQEMFPQVPYHLVLQDLQLTRSVEITTDNILEGRIQVPF | soluble |
| MGSDKIHHHHHHMKMATTHQSSTKQDILEYLHKHEKATALELAEVLDVTPQAIRRHLKDLETEELVLYSTSVQAAGMGRPQHLYELSRQGRDRLHRTMSDRFGDASGNFAVSLLDTLAETVGHDQFKSILEKQWQRKAKEYRDRVGNGSLRERVANLVELRKAEGFMAEYHAVDVNDTFESDRFILMEHNCAISNVAESFPSICGHELEMFAAVLPDCTVERTHWIIDGEHRCGYLVQVRH | not soluble |
| MGHHHHHHSHMSSKHDYTNPPWNAKVPVQRAMQWMPISQKAGAAWGVDPQLITAIIAIESGGNPNAVSKSNAIGLMQLKASTSGRDVYRRMGWSGEPTTSELKNPERNISMGAAYLNILETGPLAGIEDPKVLQYALVVSYANGAGALLRTFSSDRKKAISKINDLDADEFLEHVARNHPAPQAPRYIYKLEQALDAM | soluble |
| MGSDKIHHHHHHMTDKLLKQHKRLLEQQHKLPYTINLSGEVFTIIIYTKLSKVAGVTVLNSQEEPATVKEAEAVVNRIQKYNFYFEYLGKRAHVIKERDSIIAEKIEQTQLILNDNTIFGEKMQPTIDELNLAMEVYKQQQRKMDVYQEDITLLNQKIKMQGEILEEDWESAENLSIAFAKAAYAQSIYLEATRKNRKQLAKWFHLHQKELPTDKQKALSKMVSVLSDTNAGLVFDQIISLRPLLEEGLMLDHEQSLTQRAAEFNKEFETHCRFYKPNINKVKNLIRQ | not soluble |
| MGSDKIHHHHHHMQITKRNVELRVDDSLMRVYVASPKPVGVYPGIVFYSDIYQLGSPIIRLANYLAGFGYVVAAPEIFHRLEPIGLVIEPDDLGRMRGNDNARRTAIAEYDADSRAVIDFLKAETTVNANKIGTVGFCIGGHLAFRAAFENEVKASACCYPTGIPSGKLGKGVADTIHRVKEIKGEMLLVLGTLDPHIPESDRQILIKAIEDAKVPHKVVLYEAEHTFMRDDGYRYDSAATTFAWAEIVEFLGRVFAD | not soluble |
| MRHHTIHPQLEQVFSAPYLRQLQKVTFQKGNYIGTQGQDITELTYILSGRVKIVRSLSNGKEHILQMPQQPQLLGDVELMTNQLAGSSVIALEEVQAAQLPLNNKEALLKDPIFLYHIGRNLAMALHRQGITASTNASYFVKERLATHILNIEEQDIFQLSPSILSSSFGTSYRHVQRVIKQFIDQGIIEKKAFKTYRILQRDSLETLAFID | not soluble |
| MAQLYYRYGTMNSGKTIEILKVAYNYEEQGKGVVIMTSALDTRDGVGYVSSRIGMKRPALAIEETTDIFGYIRDLPEKPYCVLVDEAQFLKRHHVYDLARVVDELDIPVMAFGLKNDFRNELFEGSKYLLLLADKIDEIKTICQYCKKKATMVLRTQDGLPVYDGEQIQIGGNETYISVCRKHYFAPMITSNKEQNYDNLEHHHHHH | soluble |
| MAHHHHHHMAALKNKIHRIGKRKGATLKDVSAWRWIKTAARHFKQEGKIFVPNCTEIMKSSHGRERAPQNPDWYYIRCAAVLRAIYLRPGVGYGGLSKRFGNKKNYGSRPEHTVTSSTGPLHWACKSLTKLGLVEPGAQSGQRLTRKGHKFADSLAFQVQIRKFGAST | soluble |
| MNYPLIFAENQRIETERLILRPVTLADAEDMYEYASDEETVRYVFLKNQTIAETRQNIAKFFMGEPLGKYGIEVKETGKMIGTIDLRVNETNNIGELGYVLNRTFWGNGYMPEAATALVELGFAKMKLMRIFALHDQDNPASGRVMEKIGFTYEGTLPNARISKGKIVTDVYRGMTLETWQNRQK | soluble |
| MITLTLFGQETSSSALIFAYCNAATGSNTMSTDCRRRLNKDLYLLIPEHPMNPKQFERWKSQLSQLSPQQLRALQGEIDRSLHQNESALLTEEERDAIAHLFS | not soluble |
| MGSDKIHHHHHHMVRKKKEVAQVPSTSKEIKDTLWKSADKLRGSMDASQYKDVALGLVFLKYVSDSFEERQKEIRAELEGKGFDEEYILEDLADVDAYTSENVFWVASNARWDFLKKYSKGMDLEGKHKSIGKLIDEAMQQLMADNESLLGTLPQIYGKDNIDQRRLGELVDLFSSTYFASTKDKKARDLLGEVYEYFLDKFAKAEGKRGGEFYTPQPVVRTLVEILEPTEGRVYDPCCGSGGMFVQAEKFLEVTKRDRSNIAVYGQELNERTWRMAKMNLAIHAISSSGLGERWGDTFARDIHAGTKMDYIMANPPFNIKDWIRNEEDARWKYGVPPAKNANFAWIQHIISKLKDHGEAGVVMANGTMTSQSSGEGEIRKNMVEDDVVSCVIALPAQLFRGTGIPVCVWFFAKDKSAGVGGSVDRRGEVLLIDARQLGHMIDRTERAFSDEDITKIANAFRTWRGRKSAEGEYEDEAGFCKSATIEEIREAGYALTPGRYVGMPEAEEDDEPIDEKIARLTAELTAALDESARLDAVVREQLGRLK | not soluble |
| MGSDKIHHHHHHMYLVRNMEHVEPNIDGFKYYCSRFKNHFSFDERLTPWSCPHCKIGRLIAKEENFFCQETLILHSERKPSLQYSGFFICNCCDNKTFSTGTGKNNYYCGGDDETGDFTEMYVNEYTPQFFSPSIMLFNPPASTPQSVRDSLKRAFSICWCDIPASCNVLRVTVEILLKERWPEVPIVINGQNLNKKLNELKKIEASQPKLLEILDYFLAIKWLGNNGSHDAELEERDLAVAFKIMDKALILLYSRDDNSVSEWVRMINAAEGRPIKS | not soluble |
| MSLSRRPAYARLLDRAVRILAVRDHSEQELRRKLAAPIMGKNGPEEIDATAEDYERVIAWCHEHGYLDDSRFVARFIASRSRKGYGPARIRQELNQKGISREATEKAMRECDIDWCALARDQATRKYGEPLPTVFSEKVKIQRFLLYRGYLMEDIQDIWRNFADEGHHHHHH | soluble |
| MEALGADVTQGLEKGSLITCADNTGARELKVISVHGYSGTKNRHPKAGLGDKITVSVTKGTPEMRRQVLEAVVVRQRKPIRRPDGTRVKFEDNAAVIVDENEDPRGTELKGPIAREVAQRFGSVASAATMIV | soluble |
| MSKEIDISIRYLENVLSTNNSTLILSSTAAVLEAVSKNCDTTNGELKRSIISLLRIIDKKCFLNQDVDVNQIKFSLQEVGKLSTKYPKSHQKPGNEVKVKTNAEFREIETVPNPDEENIDNLLNQLNLKKVPSFSPAFPDIGDDSDDENGITTKQKEEERAEQHGQKVCEEEVVKLPDGREIRMKKTKTVNVKQTTKHVTISTKSANMPEVSRTFMNARRGFDEDEEEENTNFGSSNMRGGDPFERFRSMLKDKDEKIEAIEGESSSDPGTPGSSSKSKTIERTSEVSQKVSEKKEKDGRLLAEHEASKLDKSNLFAKQVDTYQGAALIDRKGEGSYEESTLVRSALPQDSQVATPPRMHVVEYMMMFGDDKKNNENEYLKGTTISSYVRLNNNLTTHEEQFKKKIQFEFSTAGTSSTTIDLDNLSDLLNQTDFNCLRPPNKFLEDTPLIVEQPKAIDWQREPTSAPPEKDLLLEHDGVDYVIFREKEGKVLEVRGGPKDALIVYATQSTHSSLLYQEAFLITFRTFISSLELVNKLIKRYLYMSLADDSQSESIARHTFSVIVRIIDETTQYELDFDLITSVTSFVYRLIHDGNFTYSRILRTRLLDRIKDSFDIQTVLGTNLCKPRKPHDLFDFKSAEIACQLTFIDSQLYHRIESAELLWWAQEQNEKKSKNLVNFTEQFNNLSFWVRTLIITQGTQKERERHMMKFVKIMKHLREMCNFNSYLAILSAIMSTPLARLEWSKNIKDALKEHTAVMDTAQSYKNYRALLQTAKPPCVPYIGIILQDLTFVHAGNPDTIPSDRCHGAKNMINFLKRWNQFAILDSIRKLKKWNYDIKKNDIVVQYFNGFKDCIDEERTWQLSHQIKPSNRKSKTQA | not soluble |
| MPEPTPTAYPVRLDELINAIKRVHSDVLDQLSDAVLAAEHLGEIADHLIGHFVDQARRSGASWSDIGKSMGVTKQAAQKRFVPRAEATTLDSNQGFRRFTPRARNAVVAAQNAAHGAASSEITPDHLLLGVLTDPAALATALLQQQEIDIATLRTAVTLPPAVTEPPQPIPFSGPARKVLELTFREALRLGHNYIGTEHLLLALLELEDGDGPLHRSGVDKSRAEADLITTLASLTGANAAGATDAGATDAG | soluble |
| MLDLVNQLELDSQMKQFKLVSQMTRQDVIILDEPGYLPFSQKRGALLFHLMSQLHENTSVIITTNLEFSEWGTLFTEAKMTNALLDRLIHHCHMLETGNESYRFKHRNLEHHHHHH | not soluble |
| MQKQKSFDKQTTKGKLYLVPTPIGNLEDMSIRCLNILKEATVIASEDTRNTQKLLNHFEITTPQISLHEHNYKERIPQLITRLLNGETIAQVSDAGMPSISDPGHELVTACLEEELAVIALPGPTAGMTALIASGLLPQPFTFYGFLPRKKKEQKDVLSALKEERPTQIFYESPYRIAKTVATFAEVYGQERPAVICRELTKLHEEYLRGTLGELTEYLAENTLKGECCLLVSGFTGEKETIAAMPAISLKEHVQVLMEEEGRSSKEAIKEVAKLRNVKKQEVYKEYHSI | not soluble |
